Earlier results on 2 substances are cited in PMC3566329.

Data set [1] addresses Methylamine dehydrogenase (quinone) (Paracoccus denitrificans) (UniProt P22619). The data set can be described thus: single turnover kinetics.
The target in data set [2] is preMADH (Paracoccus denitrificans) (UniProt P22619).

With MauG (di-ferrous) (from UniProt Q51658), the Kd in data set [1] was 10.1 µM.
Take MauG (from UniProt Q51658): the Kd in data set [2] is below 1.5 µM.
